{"source": "the supplement of paper PMC9876800", "data": [{"test_system": "peptide library, one residue held at a place counted from the S/T acceptor", "assay": "relative phosphorylation of the sub-library (ratio to the mean residue at this position); human; higher = residue favoured", "settings": "P fixed; at -4", "how_it_was_run": "(§1)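 Relative sub-library phosphorylation is the ratio of each sub-library's signal to the mean residue at that position. The signal came from phosphorimaging of spots on streptavidin membranes, quantified by densitometry, after purified recombinant kinases reacted with biotinylated degenerate peptide sub-libraries in 384-well plates. Reactions held 50 μM peptide and 50 μM ATP spiked with γ-32P-ATP for 90 min under kinase-specific conditions.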", "values": [{"substance": "PKN3, construct: Full length (from UniProt Q6P5Z2)", "relative phosphorylation": 0.924}]}, {"test_system": "peptide library, one residue held at a place counted from the S/T acceptor", "assay": "relative phosphorylation of the sub-library (ratio to the mean residue at this position); human; higher = residue favoured", "settings": "P fixed; at -5", "how_it_was_run": "as §1", "values": [{"substance": "MOK, construct: aa1-343 (from UniProt Q9UQ07)", "relative phosphorylation": 1.11}, {"substance": "TTBK1, construct: Full length (from UniProt Q5TCY1)", "relative phosphorylation": 0.7}, {"substance": "CHEK2, construct: Full length (from UniProt O96017)", "relative phosphorylation": 1.03}, {"substance": "MAP4K3, construct: aa1-380 (from UniProt Q8IVH8)", "relative phosphorylation": 1.11}, {"substance": "CAMK1, construct: Full length (from UniProt Q14012)", "relative phosphorylation": 1.54}, {"substance": "MAP3K10, construct: aa1-449 (from UniProt Q02779)", "relative phosphorylation": 1.28}, {"substance": "EIF2AK1, construct: Full length (from UniProt Q9BQI3)", "relative phosphorylation": 0.79}, {"substance": "PKN3, construct: Full length (from UniProt Q6P5Z2)", "relative phosphorylation": 0.955}]}, {"test_system": "peptide library, one residue held at a place counted from the S/T acceptor", "assay": "relative phosphorylation of the sub-library (ratio to the mean residue at this position); human; higher = residue favoured", "settings": "Q fixed; at +1", "how_it_was_run": "as §1", "values": [{"substance": "MOK, construct: aa1-343 (from UniProt Q9UQ07)", "relative phosphorylation": 0.567}, {"substance": "TTBK1, construct: Full length (from UniProt Q5TCY1)", "relative phosphorylation": 0.749}, {"substance": "CHEK2, construct: Full length (from UniProt O96017)", "relative phosphorylation": 0.877}, {"substance": "MAP4K3, construct: aa1-380 (from UniProt Q8IVH8)", "relative phosphorylation": 0.655}, {"substance": "CAMK1, construct: Full length (from UniProt Q14012)", "relative phosphorylation": 1.44}, {"substance": "MAP3K10, construct: aa1-449 (from UniProt Q02779)", "relative phosphorylation": 1.54}, {"substance": "EIF2AK1, construct: Full length (from UniProt Q9BQI3)", "relative phosphorylation": 1.02}, {"substance": "PKN3, construct: Full length (from UniProt Q6P5Z2)", "relative phosphorylation": 0.88}]}, {"test_system": "peptide library, one residue held at a place counted from the S/T acceptor", "assay": "relative phosphorylation of the sub-library (ratio to the mean residue at this position); human; higher = residue favoured", "settings": "Q fixed; at +2", "how_it_was_run": "as §1", "values": [{"substance": "MOK, construct: aa1-343 (from UniProt Q9UQ07)", "relative phosphorylation": 1.21}, {"substance": "TTBK1, construct: Full length (from UniProt Q5TCY1)", "relative phosphorylation": 0.493}, {"substance": "CHEK2, construct: Full length (from UniProt O96017)", "relative phosphorylation": 0.801}, {"substance": "MAP4K3, construct: aa1-380 (from UniProt Q8IVH8)", "relative phosphorylation": 0.952}, {"substance": "CAMK1, construct: Full length (from UniProt Q14012)", "relative phosphorylation": 1}, {"substance": "MAP3K10, construct: aa1-449 (from UniProt Q02779)", "relative phosphorylation": 1.24}, {"substance": "EIF2AK1, construct: Full length (from UniProt Q9BQI3)", "relative phosphorylation": 0.889}, {"substance": "PKN3, construct: Full length (from UniProt Q6P5Z2)", "relative phosphorylation": 0.806}]}, {"test_system": "peptide library, one residue held at a place counted from the S/T acceptor", "assay": "relative phosphorylation of the sub-library (ratio to the mean residue at this position); human; higher = residue favoured", "settings": "Q fixed; at +3", "how_it_was_run": "as §1", "values": [{"substance": "MOK, construct: aa1-343 (from UniProt Q9UQ07)", "relative phosphorylation": 0.857}, {"substance": "TTBK1, construct: Full length (from UniProt Q5TCY1)", "relative phosphorylation": 0.595}, {"substance": "CHEK2, construct: Full length (from UniProt O96017)", "relative phosphorylation": 0.857}, {"substance": "MAP4K3, construct: aa1-380 (from UniProt Q8IVH8)", "relative phosphorylation": 0.952}, {"substance": "CAMK1, construct: Full length (from UniProt Q14012)", "relative phosphorylation": 1.14}, {"substance": "MAP3K10, construct: aa1-449 (from UniProt Q02779)", "relative phosphorylation": 1.06}, {"substance": "EIF2AK1, construct: Full length (from UniProt Q9BQI3)", "relative phosphorylation": 0.77}, {"substance": "PKN3, construct: Full length (from UniProt Q6P5Z2)", "relative phosphorylation": 1.11}]}, {"test_system": "peptide library, one residue held at a place counted from the S/T acceptor", "assay": "relative phosphorylation of the sub-library (ratio to the mean residue at this position); human; higher = residue favoured", "settings": "Q fixed; at +4", "how_it_was_run": "as §1", "values": [{"substance": "MOK, construct: aa1-343 (from UniProt Q9UQ07)", "relative phosphorylation": 0.964}, {"substance": "TTBK1, construct: Full length (from UniProt Q5TCY1)", "relative phosphorylation": 0.928}, {"substance": "CHEK2, construct: Full length (from UniProt O96017)", "relative phosphorylation": 0.945}, {"substance": "MAP4K3, construct: aa1-380 (from UniProt Q8IVH8)", "relative phosphorylation": 1.17}, {"substance": "CAMK1, construct: Full length (from UniProt Q14012)", "relative phosphorylation": 1.01}, {"substance": "MAP3K10, construct: aa1-449 (from UniProt Q02779)", "relative phosphorylation": 1.35}, {"substance": "EIF2AK1, construct: Full length (from UniProt Q9BQI3)", "relative phosphorylation": 0.923}, {"substance": "PKN3, construct: Full length (from UniProt Q6P5Z2)", "relative phosphorylation": 1.15}]}, {"test_system": "peptide library, one residue held at a place counted from the S/T acceptor", "assay": "relative phosphorylation of the sub-library (ratio to the mean residue at this position); human; higher = residue favoured", "settings": "Q fixed; at -1", "how_it_was_run": "as §1", "values": [{"substance": "MOK, construct: aa1-343 (from UniProt Q9UQ07)", "relative phosphorylation": 1}, {"substance": "TTBK1, construct: Full length (from UniProt Q5TCY1)", "relative phosphorylation": 0.675}, {"substance": "CHEK2, construct: Full length (from UniProt O96017)", "relative phosphorylation": 0.84}, {"substance": "MAP4K3, construct: aa1-380 (from UniProt Q8IVH8)", "relative phosphorylation": 0.998}, {"substance": "CAMK1, construct: Full length (from UniProt Q14012)", "relative phosphorylation": 1.23}, {"substance": "MAP3K10, construct: aa1-449 (from UniProt Q02779)", "relative phosphorylation": 1.37}, {"substance": "EIF2AK1, construct: Full length (from UniProt Q9BQI3)", "relative phosphorylation": 0.761}, {"substance": "PKN3, construct: Full length (from UniProt Q6P5Z2)", "relative phosphorylation": 1.36}]}, {"test_system": "peptide library, one residue held at a place counted from the S/T acceptor", "assay": "relative phosphorylation of the sub-library (ratio to the mean residue at this position); human; higher = residue favoured", "settings": "Q fixed; at -2", "how_it_was_run": "as §1", "values": [{"substance": "MOK, construct: aa1-343 (from UniProt Q9UQ07)", "relative phosphorylation": 0.629}, {"substance": "TTBK1, construct: Full length (from UniProt Q5TCY1)", "relative phosphorylation": 0.849}, {"substance": "CHEK2, construct: Full length (from UniProt O96017)", "relative phosphorylation": 1.71}, {"substance": "MAP4K3, construct: aa1-380 (from UniProt Q8IVH8)", "relative phosphorylation": 0.785}, {"substance": "CAMK1, construct: Full length (from UniProt Q14012)", "relative phosphorylation": 2.24}, {"substance": "MAP3K10, construct: aa1-449 (from UniProt Q02779)", "relative phosphorylation": 1.12}, {"substance": "EIF2AK1, construct: Full length (from UniProt Q9BQI3)", "relative phosphorylation": 0.809}, {"substance": "PKN3, construct: Full length (from UniProt Q6P5Z2)", "relative phosphorylation": 1.34}]}, {"test_system": "peptide library, one residue held at a place counted from the S/T acceptor", "assay": "relative phosphorylation of the sub-library (ratio to the mean residue at this position); human; higher = residue favoured", "settings": "Q fixed; at -3", "how_it_was_run": "as §1", "values": [{"substance": "MOK, construct: aa1-343 (from UniProt Q9UQ07)", "relative phosphorylation": 0.563}, {"substance": "TTBK1, construct: Full length (from UniProt Q5TCY1)", "relative phosphorylation": 0.801}, {"substance": "CHEK2, construct: Full length (from UniProt O96017)", "relative phosphorylation": 0.543}, {"substance": "MAP4K3, construct: aa1-380 (from UniProt Q8IVH8)", "relative phosphorylation": 0.843}, {"substance": "CAMK1, construct: Full length (from UniProt Q14012)", "relative phosphorylation": 0.784}, {"substance": "MAP3K10, construct: aa1-449 (from UniProt Q02779)", "relative phosphorylation": 1.26}, {"substance": "EIF2AK1, construct: Full length (from UniProt Q9BQI3)", "relative phosphorylation": 0.842}, {"substance": "PKN3, construct: Full length (from UniProt Q6P5Z2)", "relative phosphorylation": 0.786}]}, {"test_system": "peptide library, one residue held at a place counted from the S/T acceptor", "assay": "relative phosphorylation of the sub-library (ratio to the mean residue at this position); human; higher = residue favoured", "settings": "Q fixed; at -4", "how_it_was_run": "as §1", "values": [{"substance": "MOK, construct: aa1-343 (from UniProt Q9UQ07)", "relative phosphorylation": 0.818}, {"substance": "TTBK1, construct: Full length (from UniProt Q5TCY1)", "relative phosphorylation": 0.674}, {"substance": "CHEK2, construct: Full length (from UniProt O96017)", "relative phosphorylation": 1.09}, {"substance": "MAP4K3, construct: aa1-380 (from UniProt Q8IVH8)", "relative phosphorylation": 0.928}, {"substance": "CAMK1, construct: Full length (from UniProt Q14012)", "relative phosphorylation": 1.11}, {"substance": "MAP3K10, construct: aa1-449 (from UniProt Q02779)", "relative phosphorylation": 1.05}, {"substance": "EIF2AK1, construct: Full length (from UniProt Q9BQI3)", "relative phosphorylation": 0.751}, {"substance": "PKN3, construct: Full length (from UniProt Q6P5Z2)", "relative phosphorylation": 0.922}]}, {"test_system": "peptide library, one residue held at a place counted from the S/T acceptor", "assay": "relative phosphorylation of the sub-library (ratio to the mean residue at this position); human; higher = residue favoured", "settings": "Q fixed; at -5", "how_it_was_run": "as §1", "values": [{"substance": "MOK, construct: aa1-343 (from UniProt Q9UQ07)", "relative phosphorylation": 0.916}, {"substance": "TTBK1, construct: Full length (from UniProt Q5TCY1)", "relative phosphorylation": 0.773}, {"substance": "CHEK2, construct: Full length (from UniProt O96017)", "relative phosphorylation": 0.815}, {"substance": "MAP4K3, construct: aa1-380 (from UniProt Q8IVH8)", "relative phosphorylation": 0.864}, {"substance": "CAMK1, construct: Full length (from UniProt Q14012)", "relative phosphorylation": 0.976}, {"substance": "MAP3K10, construct: aa1-449 (from UniProt Q02779)", "relative phosphorylation": 0.951}, {"substance": "EIF2AK1, construct: Full length (from UniProt Q9BQI3)", "relative phosphorylation": 0.696}, {"substance": "PKN3, construct: Full length (from UniProt Q6P5Z2)", "relative phosphorylation": 0.789}]}, {"test_system": "peptide library, one residue held at a place counted from the S/T acceptor", "assay": "relative phosphorylation of the sub-library (ratio to the mean residue at this position); human; higher = residue favoured", "settings": "R fixed; at +1", "how_it_was_run": "as §1", "values": [{"substance": "MOK, construct: aa1-343 (from UniProt Q9UQ07)", "relative phosphorylation": 3.21}, {"substance": "TTBK1, construct: Full length (from UniProt Q5TCY1)", "relative phosphorylation": 0.789}, {"substance": "CHEK2, construct: Full length (from UniProt O96017)", "relative phosphorylation": 1.34}, {"substance": "MAP4K3, construct: aa1-380 (from UniProt Q8IVH8)", "relative phosphorylation": 0.67}]}]}
